According to the supplement of paper PMC10598134:
± gives the standard deviation.

Assay: collision cross section of unmodified peptide (TIMS, N2, iRT-aligned); higher = larger / more extended gas-phase ion
How it was run: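 Synthetic peptide pools (~100 fmol/µL in 2% acetonitrile/0.1% formic acid, iRT standard spiked 1:40) were separated on a 120-min nanoflow C18 gradient at 60 °C. They were analysed on a timsTOF Pro/HT (dda-PASEF, nitrogen, ~2.4 mbar) and identified with MaxQuant. 1/K0 was calibrated with three reference ions and aligned run-wise to the median iRT peptide deviation. Collision cross section came from the Mason-Schamp equation, averaging 1–3 technical replicates of the most abundant feature per charge state.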

Sequence: VPTTEKPTVTVNFR
- collision cross section (charge state: 2): 427.25 ± 2.6 Å²
- collision cross section (charge state: 3): 517.02 ± 4.3 Å²

Sequence: AQVLAGGRGK
- collision cross section (charge state: 2): 345.66 ± 0.88 Å²

Sequence: SLGEPAAGEGSAKR
- collision cross section (charge state: 2): 397.19 ± 1.1 Å²
- collision cross section (charge state: 3): 478.87 ± 5.9 Å²

Sequence: SFEDIHQYR
- collision cross section (charge state: 2): 359.99 ± 0.48 Å²
- collision cross section (charge state: 3): 450.82 ± 1.1 Å²

Sequence: YTTNNSSEQR
- collision cross section (charge state: 2): 353.04 ± 0.15 Å²

Sequence: ISALQGKLSK
- collision cross section (charge state: 2): 353.47 ± 1.4 Å²
- collision cross section (charge state: 3): 435.93 ± 5.2 Å²

Sequence: GPPGPPGK
- collision cross section (charge state: 2): 285.24 ± 0.86 Å²

Sequence: GFCFITYTDEEPVKK
- collision cross section (charge state: 2): 461.17 ± 2.5 Å²
- collision cross section (charge state: 3): 509.46 ± 2.1 Å²

Sequence: VGTASVLQPVKK
- collision cross section (charge state: 2): 400.02 ± 0.9 Å²
- collision cross section (charge state: 3): 461.91 ± 3 Å²

Sequence: SITHSTVGSKGEK
- collision cross section (charge state: 2): 404.31 ± 1.8 Å²
- collision cross section (charge state: 3): 464.75 ± 3.9 Å²

Sequence: PLRAASPFR
- collision cross section (charge state: 2): 352.16 ± 0.084 Å²
- collision cross section (charge state: 3): 447.55 ± 5.2 Å²

Sequence: RGFGFGGFAISAGK
- collision cross section (charge state: 2): 395.08 ± 0.89 Å²
- collision cross section (charge state: 3): 486.34 ± 2.6 Å²

Sequence: LSSETYSQAK
- collision cross section (charge state: 2): 348.96 ± 1.1 Å²

Sequence: GEIGPPGPR
- collision cross section (charge state: 2): 309.77 ± 3.8 Å²

Sequence: STCTYVGAAK
- collision cross section (charge state: 2): 334.15 ± 0.48 Å²

Sequence: YSRGAGLGFSTAPNK
- collision cross section (charge state: 2): 407.91 ± 1.8 Å²
- collision cross section (charge state: 3): 476.78 ± 0.4 Å²

Sequence: SVSSSSYR
- collision cross section (charge state: 2): 308.48 ± 0.73 Å²

Sequence: VGVEVPDVNIEGPEGKLK
- collision cross section (charge state: 2): 456.21 ± 2.8 Å²
- collision cross section (charge state: 3): 537.32 ± 2.3 Å²

Sequence: FSHSVQNSERGK
- collision cross section (charge state: 2): 402.29 ± 0.72 Å²
- collision cross section (charge state: 3): 464.33 ± 2.2 Å²

Sequence: SRGAIISQYYNR
- collision cross section (charge state: 2): 400.77 ± 1.6 Å²
- collision cross section (charge state: 3): 465.8 ± 0.66 Å²

Sequence: IGAEVYHHLK
- collision cross section (charge state: 2): 371.39 ± 0.54 Å²
- collision cross section (charge state: 3): 435.97 ± 1.1 Å²

Sequence: DVFISAAER
- collision cross section (charge state: 2): 340.13 ± 0.68 Å²

Sequence: VFIGNLNTLVVKK
- collision cross section (charge state: 2): 421.66 ± 1.2 Å²
- collision cross section (charge state: 3): 475.82 ± 2 Å²

Sequence: GFALVGVGSEASSKK
- collision cross section (charge state: 2): 433.33 ± 1.5 Å²
- collision cross section (charge state: 3): 506.74 ± 2.3 Å²
